Measurements from PMC523230, “Dictyostelium Myosin Bipolar Thick Filament Formation: Importance of Charge and Specific Domains of the Myosin Rod” (PLoS Biology, 2004).
Where a chain is given by its changes, count along the chain named.

B1: extended AD (2xAsp) (protein)
chain: MNVEFIRKKDAEIDDLRARLDRETESRIKSDEDKKNTRKQFADLEAKVEEAQREVVTIDRLKKKLESDIIDLSTQLDTETKSRIKIEKSKKKLEQTLAERRAAEEGSSKAADEEIRKQVWQEVDELRAQLDSERAALNASEKKIKSLVAEVDEVKEQLEDEILAKDKLVKAKRALEVELEEVRDQLEEEEDSRSELEDSKRRLTTEVEDIKKKYDAEVEQNTKLDEAKKKLTDDVDTLKKQLEDEKKKLNESERAKKRLESENEDFLAKLDAEVKNRSRAEKDRKKYEKDLKDDKYKLNDEAADKTQTEIG
B2: AD-Cterm (3xAsp) myosin-II tail fragment (domain or fragment, Dictyostelium discoideum)
chain: MNVEFIRKKDAEIDDLRARLDRETESRIKSDEDKKNTRKQFADLEAKVEEAQREVVTIDRLKKKLESDIIDLSTQLDTETKSRIKIEKSKKKLEQTLAERRAAEEGSSKAADEEIRKQVWQEVDELRAQLDSERAALNASEKKIKSLVAEVDEVKEQLEDEILAKDKLVKAKRALEVELEEVRDQLEEEEDSRSELEDSKRRLTTEVEDIKKKYDAEVEQNTKLDEAKKKLTDDVDTLKKQLEDEKKKLNESERAKKRLESENEDFLAKLDAEVKNRSRAEKDRKKYEKDLKDDKYKLNDEAADKTQTEIGAAKLEDQIDELRSKLEQEQAKATQADKSKKTLEGEIDNLRAQIEDEGKIKMRLEKEKRALEGELEELRETVEEAEDSKSEAEQSKRLVELELEDARRNLQKEIDAKEIAEDAKSNLQREIVEAKGRLEEESIARTNSDRSRKRLEAEIDALTAQVDAEQKAKNQQIKENKKIETELKEYRKKFGESEKDKTKEFLVVEKLETDYKRAKKEAADEQQQRLTVENDLRKHLSEISLLKDAIDKLQRDHDKTKRELETETASKIEMQRKMADFFGGFKA
notes: N-terminal methionine added before the myosin residues; Dictyostelium myosin-II heavy chain, a.a; 1,531-2,116, aspartic acids in place of the three threonine phosphorylation sites; Phosphomimetic; also called headless AD-Cterm (3xAsp); 3xAsp tail fragment; source: E. coli BL21-CodonPlus (DE3)-RIL, purified (boiling, DEAE, Superdex 200, Mono Q)
B3: AD (1xThr) myosin-II assembly domain (domain or fragment, Dictyostelium discoideum)
chain: MNVEFIRKKDAEIDDLRARLDRETESRIKSDEDKKNTRKQFADLEAKVEEAQREVVTIDRLKKKLESDIIDLSTQLDTETKSRIKIEKSKKKLEQTLAERRAAEEGSSKAADEEIRKQVWQEVDELRAQLDSERAALNASEKKIKSLVAEVDEVKEQLEDEILAKDKLVKAKRALEVELEEVRDQLEEEEDSRSELEDSKRRLTTEVEDIKKKYDAEVEQNTKLDEAKKKLTDDVDTLKKQLEDEKKKLNESERAKKRLESENEDFLAKLDAEVKNRSRAEKDRKKYEKDLKDTK
notes: N-terminal methionine added before the myosin residues; Dictyostelium myosin-II heavy chain, assembly domain, a.a; 1,531-1,824; also called headless AD (1xThr); 34-kDa assembly domain; source: E. coli BL21-CodonPlus (DE3)-RIL, purified (boiling, DEAE, Superdex 200, Mono Q)
B4: AD (1xAsp) myosin-II assembly domain (domain or fragment, Dictyostelium discoideum)
chain: B3 chain with T294D
notes: N-terminal methionine added before the myosin residues; Dictyostelium myosin-II heavy chain, assembly domain, a.a; 1,531-1,824; also called headless AD (1xAsp); source: E. coli BL21-CodonPlus (DE3)-RIL, purified (boiling, DEAE, Superdex 200, Mono Q)
B5: extended AD (2xThr) (domain or fragment, Dictyostelium discoideum)
chain: B1 chain with D294T, D304T
notes: N-terminal methionine added before the myosin residues; Dictyostelium myosin-II heavy chain, a.a; 1,531-1,840; also called headless extended AD (2xThr); source: E. coli BL21-CodonPlus (DE3)-RIL, purified (boiling, DEAE, Superdex 200, Mono Q)
B6: AD-Ala 2 (2xThr) (domain or fragment, Dictyostelium discoideum)
chain: MNVEFIRKKDAEIDDLRARLDRETESRIKSDEDKKNTRKQFADLEAKVEEAQREVVTIDRLKKKLESDIIDLSTQLDTETKSRIKIEKSKKKLEQTLAERRAAEEGSSKAADEEIRKQVWQEVDELRAQLDSERAALNASEKKIKSLVAEVDEVKEQLEDEILAKDKLVKAKRALEVELEEVRDQLEEEEDSRSELEDSKRRLTTEVEDIKKKYDAEVEQNTKLDEAKKKLTDDVDTLKKQLEDEKKKLNESERAKKRLESENEDFLAKLDAEVKNRSRAEKDRKKYEKDLKDTKYKLNDEAATKTQTEIGAAKLEDQIDELRSKLEQEQAKATQADKSKKTLEGEIDNLRAQIEDEGKIKMRLEKEKRALEGELEELRETVEEAEDSKSEAEQSKRLVELELEDARRNLQKEIDAKEIAEDAKSNLQREIVEAKGR
notes: N-terminal methionine added before the myosin residues; Dictyostelium myosin-II heavy chain, a.a; 1,531-1,966 (AD through Ala 2); also called headless AD-Ala2 (2xThr); source: E. coli BL21-CodonPlus (DE3)-RIL, purified (boiling, DEAE, Superdex 200, Mono Q)
B7: Ala1-Ala2 (2xThr) (domain or fragment, Dictyostelium discoideum)
chain: MLDEIKRQYADVVSSRDKSVEQLKTLQAKNEELRNTAEEAEGQLDRAERSKKKAEFDLEEAVKNLEEETAKKVKAEKAMKKAETDYRSTKSELDDAKNVSSEQYVQIKRLNEELSELRSVLEEADERCNSAIKAKKTAESALESLKDEIDAANNAKAKAERKSKELEVRVAELEESLEDKSGTVNVEFIRKKDAEIDDLRARLDRETESRIKSDEDKKNTRKQFADLEAKVEEAQREVVTIDRLKKKLESDIIDLSTQLDTETKSRIKIEKSKKKLEQTLAERRAAEEGSSKAADEEIRKQVWQEVDELRAQLDSERAALNASEKKIKSLVAEVDEVKEQLEDEILAKDKLVKAKRALEVELEEVRDQLEEEEDSRSELEDSKRRLTTEVEDIKKKYDAEVEQNTKLDEAKKKLTDDVDTLKKQLEDEKKKLNESERAKKRLESENEDFLAKLDAEVKNRSRAEKDRKKYEKDLKDTKYKLNDEAATKTQTEIGAAKLEDQIDELRSKLEQEQAKATQADKSKKTLEGEIDNLRAQIEDEGKIKMRLEKEKRALEGELEELRETVEEAEDSKSEAEQSKRLVELELEDARRNLQKEIDAKEIAEDAKSNLQREIVEAKGR
notes: N-terminal methionine added before the myosin residues; Dictyostelium myosin-II heavy chain, a.a; 1,348-1,966 (Ala 1 through Ala 2); also called headless Ala1-Ala2 (2xThr); source: E. coli BL21-CodonPlus (DE3)-RIL, purified (boiling, DEAE, Superdex 200, Mono Q)
B8: Ala1-Cterm (3xThr) (domain or fragment, Dictyostelium discoideum)
chain: MLDEIKRQYADVVSSRDKSVEQLKTLQAKNEELRNTAEEAEGQLDRAERSKKKAEFDLEEAVKNLEEETAKKVKAEKAMKKAETDYRSTKSELDDAKNVSSEQYVQIKRLNEELSELRSVLEEADERCNSAIKAKKTAESALESLKDEIDAANNAKAKAERKSKELEVRVAELEESLEDKSGTVNVEFIRKKDAEIDDLRARLDRETESRIKSDEDKKNTRKQFADLEAKVEEAQREVVTIDRLKKKLESDIIDLSTQLDTETKSRIKIEKSKKKLEQTLAERRAAEEGSSKAADEEIRKQVWQEVDELRAQLDSERAALNASEKKIKSLVAEVDEVKEQLEDEILAKDKLVKAKRALEVELEEVRDQLEEEEDSRSELEDSKRRLTTEVEDIKKKYDAEVEQNTKLDEAKKKLTDDVDTLKKQLEDEKKKLNESERAKKRLESENEDFLAKLDAEVKNRSRAEKDRKKYEKDLKDTKYKLNDEAATKTQTEIGAAKLEDQIDELRSKLEQEQAKATQADKSKKTLEGEIDNLRAQIEDEGKIKMRLEKEKRALEGELEELRETVEEAEDSKSEAEQSKRLVELELEDARRNLQKEIDAKEIAEDAKSNLQREIVEAKGRLEEESIARTNSDRSRKRLEAEIDALTAQVDAEQKAKNQQIKENKKIETELKEYRKKFGESEKTKTKEFLVVEKLETDYKRAKKEAADEQQQRLTVENDLRKHLSEISLLKDAIDKLQRDHDKTKRELETETASKIEMQRKMADFFGGFKA
notes: N-terminal methionine added before the myosin residues; Dictyostelium myosin-II heavy chain, a.a; 1,348-2,116 (Ala 1 through C terminus); also called headless Ala1-Cterm (3xThr); source: E. coli BL21-CodonPlus (DE3)-RIL, purified (boiling, DEAE, Superdex 200, Mono Q)
B9: AD-Cterm (3xThr) myosin-II tail fragment (domain or fragment, Dictyostelium discoideum)
chain: B2 chain with D294T, D304T, D500T
notes: N-terminal methionine added before the myosin residues; Dictyostelium myosin-II heavy chain, a.a; 1,531-2,116 (assembly domain through C terminus); the assembly rows are about coiled coils joining into paracrystals; also called headless AD-Cterm (3xThr); wild-type tail fragment; source: E. coli BL21-CodonPlus (DE3)-RIL, purified (boiling, DEAE, Superdex 200, Mono Q)

How the values were obtained:
[1] = biological target: P08799; experiment: sedimentation assembly assay; self-assembly into filaments or paracrystals; 10 uM protein added to an equal volume, 10 mM imidazole pH 7.5, 0.1 mM EDTA, 1 mM DTT, 0-250 mM NaCl, on ice at least 30 min, 132,000 x g 15 min 4 °C; supernatant and pellet by SDS-PAGE; conditions: other: sedimentation assembly assay
[2] = biological target: the molecule itself; experiment: AUC; sedimentation equilibrium; step: single chains to two-stranded coiled coil; 10.5-52 uM protein, 10 mM Tris pH 7.4, 0.1 mM EDTA, 500 mM NaCl, 10 °C, 10,000 rpm; fit to a single non-associating ideal species
[3] = biological target: the molecule itself; experiment: sedimentation assembly assay; self-assembly into filaments or paracrystals; 10 uM protein added to an equal volume, 10 mM imidazole pH 7.5, 0.1 mM EDTA, 1 mM DTT, 0-250 mM NaCl, on ice at least 30 min, 132,000 x g 15 min 4 °C; supernatant and pellet by SDS-PAGE

Protein | binding result [3] | further results
B1 | – | fold difference in solubility against extended AD (2xThr) [1]: extended AD (2xThr) and extended AD (2xAsp) show a four-fold difference in solubility
B2 | – | stoichiometry N [2]: 2; fold difference in solubility against AD-Cterm (3xThr) [1]: eight-fold difference in solubility of full-length unphosphorylated and phosphorylated myosin, respectively, and AD-Cterm (3xThr) and AD-Cterm (3xAsp), respectively
B3 | binds | –
B4 | binds | –
B5 | binds | –
B6 | binds | –
B7 | binds | –
B8 | binds | –
B9 | – | stoichiometry N [2]: 2
